# According to US20230265151A1, “GIP/GLP1 CO-AGONIST COMPOUNDS” (priority 2020, published 2023):
# Changes are numbered by the printed parent chain.
# T1: human glucose-dependent insulinotropic polypeptide (GIP) receptor (human, UniProt P48546 22-466)
# T1 sequence (looked up): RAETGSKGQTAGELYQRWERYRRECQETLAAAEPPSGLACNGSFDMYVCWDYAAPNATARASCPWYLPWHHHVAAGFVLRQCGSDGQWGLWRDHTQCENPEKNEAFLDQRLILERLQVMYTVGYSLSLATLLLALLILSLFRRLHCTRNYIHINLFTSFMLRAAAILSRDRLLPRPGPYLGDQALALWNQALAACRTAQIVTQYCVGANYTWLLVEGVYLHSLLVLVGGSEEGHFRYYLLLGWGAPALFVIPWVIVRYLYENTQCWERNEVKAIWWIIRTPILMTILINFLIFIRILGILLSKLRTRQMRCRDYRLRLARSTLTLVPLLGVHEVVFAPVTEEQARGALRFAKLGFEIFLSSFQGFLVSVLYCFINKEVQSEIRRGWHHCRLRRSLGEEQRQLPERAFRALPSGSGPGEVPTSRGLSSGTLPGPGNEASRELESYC
# T2: human GIP receptor (human, UniProt P48546 22-466)
# T2 sequence (looked up): T1 sequence (looked up)
# B1: Example 208 (peptide)
# peptide: YXEGTXTSDXSIXLDXKAQXEFIXXLIKGGPSSGAPPPS
# modifications: Aib2, αMeF(2F)6, 4Pal10, αMeL13, Orn16, K17(Z), Aib20, D-Glu24, αMeY25, K28(Z), C-terminal NH2; Z = AEEA-(γ-Glu)-(4-(4-tert-butylphenyl)butanoyl)
# B2: Example 200 (peptide)
# peptide: B1 peptide with X10Y, S11X, K28E, P31K
# modifications: Aib2, αMeF(2F)6, Dap11, αMeL13, Orn16, K17(Z), Aib20, D-Glu24, αMeY25, K31(Z), C-terminal NH2; Z = AEEA2-(γ-Glu)-CO-(CH2)12-CO2H
# B3: Example 202 (peptide)
# peptide: B1 peptide with S11X, K28E, P31K
# modifications: Aib2, αMeF(2F)6, 4Pal10, Tle11, αMeL13, Orn16, K17(Z), Aib20, D-Glu24, αMeY25, K31(Z), C-terminal NH2; Z = AEEA2-(γ-Glu)-CO-(CH2)12-CO2H
# B4: Example 207 (peptide)
# peptide: B1 peptide with E21K, K28E
# modifications: Aib2, αMeF(2F)6, 4Pal10, αMeL13, Orn16, K17(Z), Aib20, K21(Z), D-Glu24, αMeY25, C-terminal NH2; Z = AEEA-(γ-Glu)-(4-(4-tert-butylphenyl)butanoyl)
# B5: Example 203 (peptide)
# peptide: B1 peptide with K17I, X24K
# modifications: Aib2, αMeF(2F)6, 4Pal10, αMeL13, Orn16, Aib20, K24(Z), αMeY25, K28(Z), C-terminal NH2; Z = AEEA2-(γ-Glu)-(4-(4-tert-butylphenyl)butanoyl)
# B6: Example 204 (peptide)
# peptide: B1 peptide with K17I, E21K
# modifications: Aib2, αMeF(2F)6, 4Pal10, αMeL13, Orn16, Aib20, K21(Z), D-Glu24, αMeY25, K28(Z), C-terminal NH2; Z = AEEA2-(γ-Glu)-(4-(4-tert-butylphenyl)butanoyl)
# B7: Example 209 (peptide)
# peptide: YXEGTXTSDXSIXLDXKAQXEFIXXLIEGGPSSGAPPPSK
# modifications: Aib2, αMeF(2F)6, 4Pal10, αMeL13, Orn16, K17(Z), Aib20, D-Glu24, αMeY25, K40(Z), C-terminal NH2; Z = AEEA-(γ-Glu)-(4-(4-tert-butylphenyl)butanoyl)
# B8: Example 205 (peptide)
# peptide: B7 peptide with K17I, E21K
# modifications: Aib2, αMeF(2F)6, 4Pal10, αMeL13, Orn16, Aib20, K21(Z), D-Glu24, αMeY25, K40(Z), C-terminal NH2; Z = AEEA2-(γ-Glu)-(4-(4-tert-butylphenyl)butanoyl)
# B9: Y-Aib-EGT-αMeF(2F)-TSD-1Nal-SI-αMeL-LD-Orn-K((2-[2-(2-Amino-ethoxy)-ethoxy]-acetyl)2-(γ-Glu)-CO-(CH2)12-CO2H)AQ-Aib-EFI-(D-Glu)-αMeY-LIEGGK((2-[2-(2-Amino-ethox … (peptide)
# peptide: B1 peptide with K28E, P31K
# modifications: Aib2, αMeF(2F)6, 1Nal10, αMeL13, Orn16, Aib20, D-Glu24, αMeY25; acylated K17, K31 (groups as in name); C-terminal amide
# B10: Y-Aib-EGT-αMeF(2F)-TSD-4Pal-SI-αMeL-LD-Orn-IAQ-Aib-EFIK((εK)-(γ-Glu)-CO-(CH2)12-CO2H)-αMeY-LIEGGK((εK)-(γ-Glu)-CO-(CH2)12-CO2H)SSGAPPPS-NH2 (peptide)
# peptide: B1 peptide with K17I, X24K, K28E, P31K
# modifications: Aib2, αMeF(2F)6, 4Pal10, αMeL13, Orn16, Aib20, αMeY25; acylated K24, K31 (groups as in name); C-terminal amide
# B11: Y-Aib-EGT-αMeF(2F)-TSD-4Pal-SI-αMeL-LD-Orn-IAQ-Aib-EFIK((2-[2-(2-Amino-ethoxy)-ethoxy]-acetyl)2-CO-(CH2)12-CO2H)-αMeY-LIK((2-[2-(2-Amino-ethoxy)-ethoxy]-acetyl) … (peptide)
# peptide: B1 peptide with K17I, X24K
# modifications: Aib2, αMeF(2F)6, 4Pal10, αMeL13, Orn16, Aib20, αMeY25; acylated K24, K28 (groups as in name); C-terminal amide
# B12: Y-Aib-EGT-αMeF(2F)-TSD-4Pal-SI-αMeL-LD-Orn-IAQ-Aib-EFIK((2-[2-(2-Amino-ethoxy)-ethoxy]-acetyl)2-(γ-Glu)-CO-(CH2)12-CO2H)-αMeY-LIEGGK((2-[2-(2-Amino-ethoxy)-etho … (peptide)
# peptide: B1 peptide with K17I, X24K, K28E, P31K
# modifications: Aib2, αMeF(2F)6, 4Pal10, αMeL13, Orn16, Aib20, αMeY25; acylated K24, K31 (groups as in name); C-terminal amide
# B13: Y-Aib-EGT-αMeF(2F)-TSD-4Pal-SI-αMeL-LD-Orn-IAQ-Aib-EFI-(D-Glu)-αMeY-LIK((2-[2-(2-Amino-ethoxy)-ethoxy]-acetyl)2-(γ-Glu)-CO-(CH2)12-CO2H)GGK((2-[2-(2-Amino-ethox … (peptide)
# peptide: B1 peptide with K17I, P31K
# modifications: Aib2, αMeF(2F)6, 4Pal10, αMeL13, Orn16, Aib20, D-Glu24, αMeY25; acylated K28, K31 (groups as in name); C-terminal amide
# B14: Y-Aib-EGT-αMeF(2F)-TSD-4Pal-SI-αMeL-LD-Orn-IAQ-Aib-EFIK((2-[2-(2-Amino-ethoxy)-ethoxy]-acetyl)2-CO-(CH2)12-CO2H)-αMeY-LIEGGK((2-[2-(2-Amino-ethoxy)-ethoxy]-acet … (peptide)
# peptide: B1 peptide with K17I, X24K, K28E, P31K
# modifications: Aib2, αMeF(2F)6, 4Pal10, αMeL13, Orn16, Aib20, αMeY25; acylated K24, K31 (groups as in name); C-terminal amide
# B15: Y-Aib-EGT-αMeF(2F)-TSD-4Pal-SI-αMeL-LD-Orn-IAQ-Aib-K((2-[2-(2-Amino-ethoxy)-ethoxy]-acetyl)2-CO-(CH2)12-CO2H)FI-(D-Glu)-αMeY-LIEGGK((2-[2-(2-Amino-ethoxy)-ethox … (peptide)
# peptide: B1 peptide with K17I, E21K, K28E, P31K
# modifications: Aib2, αMeF(2F)6, 4Pal10, αMeL13, Orn16, Aib20, D-Glu24, αMeY25; acylated K21, K31 (groups as in name); C-terminal amide
# B16: Y-Aib-EGT-αMeF(2F)-TSD-4Pal-SI-αMeL-LD-Orn-IAQ-Aib-EFIK((2-[2-(2-Amino-ethoxy)-ethoxy]-acetyl)2-(γ-Glu)-(4-(4-tert-butylphenyl)butanoyl))-αMeY-LIK((2-[2-(2-Amin … (peptide)
# peptide: B1 peptide with K17I, X24K
# modifications: Aib2, αMeF(2F)6, 4Pal10, αMeL13, Orn16, Aib20, αMeY25; acylated K24, K28 (groups as in name); C-terminal amide
# Target: T1, human glucose-dependent insulinotropic …
# Experiment: cell-based or functional assay
Binder,cAMP EC50 [nM],cAMP Emax [%]
B1,0.018,–
B2,0.0503,96.3
B3,0.057,86
B4,0.019,–
B5,0.0721,–
B6,0.0304,–
B7,0.0133,–
B8,0.0264,–

# Target: human glucagon-like peptide-1 (GLP-1) receptor (human, UniProt P43220 24-463)
# Experiment: cell-based or functional assay
Binder,cAMP EC50 [nM],cAMP Emax [%]
B1,0.238,–
B2,0.834,93.7
B3,0.944,92.2
B4,0.209,–
B5,0.535,–
B6,0.47,126
B7,0.235,–
B8,0.287,–

# Target: human glucagon receptor (human, UniProt P47871 26-477)
# Experiment: cell-based or functional assay
row,Binder,cAMP EC50 [nM]
1,B1,> 9950
2,B2,> 9950
3,B3,> 9950
4,B4,> 9950
5,B5,> 9950
6,B6,> 9950
7,B7,> 9950
8,B8,> 9950

# Target: human glucagon receptor (human, UniProt P47871 26-477)
# Experiment: cell-based or functional assay
# Remark: another data set of the same source
row,Binder,cAMP EC50 (1.0% HSA) [nM]
1,B9,> 9950
2,B10,> 9950
3,B11,> 9950
4,B12,> 9950
5,B13,> 9950
6,B14,> 9950
7,B15,> 9950
8,B16,> 9950

# Target: T2, human GIP receptor
# Experiment: cell-based or functional assay
row,Binder,cAMP EC50 (1.0% HSA) [nM]
1,B9,6.75
2,B10,2.06
3,B11,0.832
4,B12,3.07
5,B13,1.66
6,B14,1.47
7,B15,0.771
8,B16,0.682
